The target in assay [1] is anti-GCN4 (52SR4 scFv) sCAR with CD8 hinge. The experiment in a line: flow cytometry of CD8 sCAR T cells; filled histogram with a second peak at about 10^4 against a dashed control histogram; the legend names an AF647 conjugate, the axis prints APC.
Another assay has as its target CART19. The experiment in a line: flow cytometry of CART19 T cells; filled histogram with a second population at about 10^3-10^4 against a dashed control histogram; the legend names an AF647 conjugate, the axis prints APC. (In general: A flow cytometer gives signals particle by particle.)
The target of assay [2] is HLA molecules on T2 cells loaded with the NY-ESO-1 peptide. The experiment in a line: cell-based or functional assay.

CART19, sequence (chimeric antigen receptor, as listed by the source limits assumed): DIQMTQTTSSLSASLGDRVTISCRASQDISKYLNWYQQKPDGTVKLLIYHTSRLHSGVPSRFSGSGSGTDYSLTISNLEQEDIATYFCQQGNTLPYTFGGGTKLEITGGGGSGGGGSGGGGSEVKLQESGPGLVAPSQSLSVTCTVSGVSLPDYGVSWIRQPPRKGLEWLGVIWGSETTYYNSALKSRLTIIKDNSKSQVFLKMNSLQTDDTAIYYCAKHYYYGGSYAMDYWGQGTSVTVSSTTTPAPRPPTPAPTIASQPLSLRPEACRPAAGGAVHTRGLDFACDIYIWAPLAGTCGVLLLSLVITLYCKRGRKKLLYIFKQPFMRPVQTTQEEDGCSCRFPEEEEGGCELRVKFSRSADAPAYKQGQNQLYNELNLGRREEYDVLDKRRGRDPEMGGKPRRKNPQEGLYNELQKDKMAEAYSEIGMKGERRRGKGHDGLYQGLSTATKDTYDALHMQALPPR
anti-GCN4 (52SR4 scFv) sCAR with CD8 hinge, sequence (chain, as listed by the source limits assumed): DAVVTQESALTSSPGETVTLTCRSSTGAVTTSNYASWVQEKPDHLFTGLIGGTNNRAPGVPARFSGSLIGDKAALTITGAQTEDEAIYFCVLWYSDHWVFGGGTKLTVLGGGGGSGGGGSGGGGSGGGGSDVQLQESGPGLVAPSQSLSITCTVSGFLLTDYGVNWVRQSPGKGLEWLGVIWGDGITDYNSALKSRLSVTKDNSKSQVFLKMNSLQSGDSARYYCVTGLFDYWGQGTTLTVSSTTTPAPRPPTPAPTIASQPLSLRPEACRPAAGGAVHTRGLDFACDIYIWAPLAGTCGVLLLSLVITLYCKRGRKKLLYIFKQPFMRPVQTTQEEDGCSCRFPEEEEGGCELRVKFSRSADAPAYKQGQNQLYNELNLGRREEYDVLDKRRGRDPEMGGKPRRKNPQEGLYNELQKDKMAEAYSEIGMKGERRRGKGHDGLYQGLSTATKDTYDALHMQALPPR

On to “APC-conjugated goat-anti mouse IgG (H&L) polyclonal antibody”, for which the number beside the gate bar of the histogram (share of cells in the positive gate; name not given) is 69.3 in assay [1] and 53.3 with CART19.

On to “NY-ESO-1 specific soluble TCR 1G4c113 with C-terminal GCN4 peptide and 6x HIS tag on the beta chain”, for which, in assay [2], the sTCR switch concentration at which IFNg, IL-2 and TNFa are produced is greater than 10 pM; the sTCR switch concentration at which T cells express CD25 and CD69 was greater than 1 pM.

These data come from patent US20190169289A1.
